According to paper PMC3834829, “A signature motif mediating selective interactions of BCL11A with the NR2E/F subfamily of orphan nuclear receptors” (Nucleic Acids Research, 2013):
Residue numbers refer to the chain shown, from its start. Numbers in names are those of the source.

B1: AAD-EAR2-LBD-(121–399) (domain or fragment)
chain: MRKEAVQRGRIPHSLPGAVAASSGSPPGSALAAVASGGDLFPGQPVSELIAQLLRAEPYPAAAGRFGAGGGAAGAVLGIDNVCELAARLLFSTVEWARHAPFFPELPVADQVALLRLSWSELFVLNAAQAALPLHTAPLLAAAGLHAAPMAAERAVAFMDQVRAFQEQVDKLGRLQVDSAEYGCLKAIALFTPDACGLSDPAHVESLQEKAQVALTEYVRAQYPSQPQRFGRLLLRLPALRAVPASLISQLFFMRLVGKTPIETLIRDMLLSGSTFNWP
B2: AAD-COUP-TFII-LBD-(144–414) (domain or fragment)
chain: MRREAVQRGRMPPTQPTHGQFALTNGDPLNCHSYLSGYISLLLRAEPYPTSRFGSQCMQPNNIMGIENICELAARMLFSAVEWARNIPFFPDLQITDQVALLRLTWSELFVLNAAQCSMPLHVAPLLAAAGLHASPMSADRVVAFMDHIRIFQEQVEKLKALHVDSAEYSCLKAIVLFTSDACGLSDVAHVESLQEKSQCALEEYVRSQYPNQPTRFGKLLLRLPSLRTVSSSVIEQLFFVRLVGKTPIETLIRDMLLSGSSFNWPYMAIQ
B3: AAD-COUP-TFII-LBD V224A (domain or fragment, UniProt P24468 144-414, looked up)
chain: B2 chain with V81A
notes: expressed at a 2-fold lower level than the other constructs of the series; also called V224A mutant; source: yeast two-hybrid fusion (S. cerevisiae L40)

Assays:
[1] = target: AAD-LRH-1-LBD-(133–495) (UniProt O00482); experiment: yeast two-hybrid; settings: parent: est. 1100; read off a plot
[2] = target: LexA-BCL11A RID1 F315A (UniProt Q9H165); experiment: two-hybrid; S. cerevisiae L40; LexA DBD fusion with VP16 AAD-NR fusion; β-galactosidase activity in cell-free extracts; vehicle only or no ligand
[3] = target: LexA-BCL11A RID1 R317A (UniProt Q9H165); experiment: as above
[4] = target: LexA-BCL11A RID1 R320A (UniProt Q9H165); experiment: as above
[5] = target: T1, LexA-COUP-TFII-LBD-(144–414) (UniProt P24468 144-414); experiment: as above; settings: partners not purified
T1 construct: the bait copy of the LBD in the dimer assay; same residues as m19; also called wild-type COUP-TFII LBD; full-length LBD; source: yeast two-hybrid fusion (S. cerevisiae L40)
T1 sequence (looked up): B2 chain

AAD-LRH-1-LBD-(133–495), sequence (O00482 133-495): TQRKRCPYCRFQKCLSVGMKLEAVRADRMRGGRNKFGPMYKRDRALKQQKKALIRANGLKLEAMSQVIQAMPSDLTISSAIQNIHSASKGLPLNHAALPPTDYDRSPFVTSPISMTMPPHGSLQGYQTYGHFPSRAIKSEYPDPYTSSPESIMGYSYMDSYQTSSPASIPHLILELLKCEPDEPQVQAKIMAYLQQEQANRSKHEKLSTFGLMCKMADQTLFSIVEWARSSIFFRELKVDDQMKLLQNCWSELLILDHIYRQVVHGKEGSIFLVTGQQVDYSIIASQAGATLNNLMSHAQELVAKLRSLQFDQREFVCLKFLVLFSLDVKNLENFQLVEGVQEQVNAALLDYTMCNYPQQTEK

Row | Molecule | response [1] | other results
1 | LexA-NSD1-(790–818) D812A | 660 nmol/mg/min | 
2 | LexA-NSD1-(790–818) F803A | 310 nmol/mg/min | 
3 | LexA-NSD1-(790–818) K802A | 1300 nmol/mg/min | 
4 | LexA-NSD1-(790–818) K811A | 710 nmol/mg/min | 
5 | LexA-NSD1-(790–818) L806A | 0 nmol/mg/min | 
6 | LexA-NSD1-(790–818) L807A | 470 nmol/mg/min | 
7 | LexA-NSD1-(790–818) L810A | 0 nmol/mg/min | 
8 | LexA-NSD1-(790–818) M808A | 900 nmol/mg/min | 
9 | LexA-NSD1-(790–818) M809A | 0 nmol/mg/min | 
10 | LexA-NSD1-(790–818) S804A | 0 nmol/mg/min | 
11 | LexA-NSD1-(790–818) Y801A | 690 nmol/mg/min | 
12 | B1 |  | fold lower reporter activation than wild-type RID1 [2]: 2 fold
13 | B2 |  | fold lower reporter activity than wild-type RID1 [3]: 5 fold; fold lower reporter activity than wild-type RID1 [4]: 5 fold
14 | B3 |  | fold reduction of reporter activation due to homodimer formation [5]: ~2.5 fold
